Key:
c-Src = test: phosphorylation enrichment, bacterial display (enrichment ratio); higher = better substrate or ligand; peptides without Tyr show the background
AncSZ = test: as above
MERTK = MERTK (UniProt Q12866); test: as above
FGFR3 = FGFR3 (UniProt P22607); test: as above
Fer (mouse) = test: as above
c-Abl (mouse) = test: as above
EPHB2 = EPHB2 (UniProt P29323); test: as above
Fes = Fes (UniProt P07332); test: as above
Hck = Hck (UniProt P08631); test: as above
Jak2 = Jak2 (UniProt O60674); test: as above
Sequence of Jak2 (O60674 whole entry, looked up): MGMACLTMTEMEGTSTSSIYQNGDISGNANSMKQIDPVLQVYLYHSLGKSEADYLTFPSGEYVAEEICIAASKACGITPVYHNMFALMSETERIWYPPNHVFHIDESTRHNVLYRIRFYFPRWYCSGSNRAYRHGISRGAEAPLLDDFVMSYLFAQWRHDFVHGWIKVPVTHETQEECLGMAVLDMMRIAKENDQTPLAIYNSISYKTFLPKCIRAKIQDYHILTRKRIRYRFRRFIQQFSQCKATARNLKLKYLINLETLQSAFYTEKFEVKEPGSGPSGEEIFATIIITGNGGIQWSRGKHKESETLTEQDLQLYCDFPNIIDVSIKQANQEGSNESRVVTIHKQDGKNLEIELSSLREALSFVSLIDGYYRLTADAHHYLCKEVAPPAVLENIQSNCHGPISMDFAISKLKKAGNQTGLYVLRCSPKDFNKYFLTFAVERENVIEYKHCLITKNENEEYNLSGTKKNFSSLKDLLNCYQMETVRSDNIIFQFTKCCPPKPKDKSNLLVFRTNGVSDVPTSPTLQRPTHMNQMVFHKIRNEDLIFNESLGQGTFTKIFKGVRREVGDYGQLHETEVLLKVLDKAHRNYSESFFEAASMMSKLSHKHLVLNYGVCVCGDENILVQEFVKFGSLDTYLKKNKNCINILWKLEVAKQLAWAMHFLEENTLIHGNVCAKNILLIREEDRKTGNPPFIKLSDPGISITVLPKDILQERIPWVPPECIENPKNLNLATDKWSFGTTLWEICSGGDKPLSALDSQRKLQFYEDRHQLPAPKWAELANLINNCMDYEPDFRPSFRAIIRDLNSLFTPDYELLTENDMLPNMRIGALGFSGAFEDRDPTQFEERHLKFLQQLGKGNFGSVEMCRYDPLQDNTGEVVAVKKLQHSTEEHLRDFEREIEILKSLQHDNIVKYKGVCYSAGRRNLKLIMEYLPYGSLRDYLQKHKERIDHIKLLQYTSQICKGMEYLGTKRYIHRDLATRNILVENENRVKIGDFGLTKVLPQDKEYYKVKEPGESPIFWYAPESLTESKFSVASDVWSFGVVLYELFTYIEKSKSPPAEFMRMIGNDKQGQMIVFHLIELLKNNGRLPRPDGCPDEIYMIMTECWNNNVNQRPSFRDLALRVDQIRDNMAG

EPHB1 = EPHB1 (UniProt P54762); test: as above
Sequence of EPHB1 (P54762 whole entry, looked up): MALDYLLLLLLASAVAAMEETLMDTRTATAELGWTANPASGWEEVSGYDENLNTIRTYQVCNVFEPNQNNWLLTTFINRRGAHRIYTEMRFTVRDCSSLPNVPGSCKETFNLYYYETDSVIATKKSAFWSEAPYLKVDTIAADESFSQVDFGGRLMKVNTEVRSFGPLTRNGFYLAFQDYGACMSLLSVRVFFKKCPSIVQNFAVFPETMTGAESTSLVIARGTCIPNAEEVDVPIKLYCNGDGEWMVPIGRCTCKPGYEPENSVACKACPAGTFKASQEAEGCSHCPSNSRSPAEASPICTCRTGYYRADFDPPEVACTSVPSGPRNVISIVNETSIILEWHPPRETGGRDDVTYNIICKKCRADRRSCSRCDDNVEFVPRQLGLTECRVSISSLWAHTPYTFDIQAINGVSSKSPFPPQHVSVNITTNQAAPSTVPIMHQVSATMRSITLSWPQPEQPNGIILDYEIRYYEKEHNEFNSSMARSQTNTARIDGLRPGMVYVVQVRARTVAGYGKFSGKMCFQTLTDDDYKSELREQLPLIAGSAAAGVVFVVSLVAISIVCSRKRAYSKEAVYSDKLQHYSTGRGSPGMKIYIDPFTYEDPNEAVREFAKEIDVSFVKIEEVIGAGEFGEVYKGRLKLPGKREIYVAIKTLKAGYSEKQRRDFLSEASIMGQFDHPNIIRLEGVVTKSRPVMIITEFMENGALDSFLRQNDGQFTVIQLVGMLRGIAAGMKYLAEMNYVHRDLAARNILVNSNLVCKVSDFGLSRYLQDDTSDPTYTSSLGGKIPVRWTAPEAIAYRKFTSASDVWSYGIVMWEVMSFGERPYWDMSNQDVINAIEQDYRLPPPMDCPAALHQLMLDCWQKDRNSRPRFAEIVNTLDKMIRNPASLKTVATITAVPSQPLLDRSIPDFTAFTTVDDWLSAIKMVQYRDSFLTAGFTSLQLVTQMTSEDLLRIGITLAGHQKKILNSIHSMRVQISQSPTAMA

FGFR1 = FGFR1 (UniProt P11362); test: as above
Fyn = Fyn (UniProt P06241); test: as above
Sequence of Fyn (P06241 whole entry, looked up): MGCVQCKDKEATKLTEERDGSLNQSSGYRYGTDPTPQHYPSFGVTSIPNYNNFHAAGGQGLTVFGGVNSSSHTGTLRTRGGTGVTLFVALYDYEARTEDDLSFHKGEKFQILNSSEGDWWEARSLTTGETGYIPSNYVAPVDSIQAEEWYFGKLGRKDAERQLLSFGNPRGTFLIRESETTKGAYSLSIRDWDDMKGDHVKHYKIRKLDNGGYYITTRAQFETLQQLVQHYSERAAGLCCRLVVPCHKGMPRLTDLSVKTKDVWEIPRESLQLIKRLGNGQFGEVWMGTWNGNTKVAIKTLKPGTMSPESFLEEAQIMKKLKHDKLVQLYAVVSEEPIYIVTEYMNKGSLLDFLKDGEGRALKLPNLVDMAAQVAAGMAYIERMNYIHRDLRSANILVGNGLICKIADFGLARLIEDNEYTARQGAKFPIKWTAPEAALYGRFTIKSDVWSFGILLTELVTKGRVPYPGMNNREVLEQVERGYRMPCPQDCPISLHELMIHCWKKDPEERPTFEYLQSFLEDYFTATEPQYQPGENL

SHP2-C SH2 = test: SH2 binding enrichment of the phosphorylated peptide, bacterial display (enrichment ratio); higher = better substrate or ligand; peptides without Tyr show the background
Grb2 SH2 = Grb2 SH2 (UniProt P62993); test: as above
c-Src SH2 = test: as above
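Wherever SH2 binding enrichment of the phosphorylated peptide, bacterial display is given: peptide library displayed on the E. coli surface as eCPX fusions, selected cells deep-sequenced, score is each peptide's frequency after selection divided by its frequency in the input.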
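Wherever phosphorylation enrichment, bacterial display is given: 11-residue human phosphosite peptides and single-mutation variants displayed on the E. coli surface, counted by deep sequencing, each peptide's frequency after selection divided by its frequency in the unselected input library; frequency after pTyr selection over input frequency; kinase dosed for 20-30% of maximal phosphorylation in three min.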

Sequence of EPHB2 (P29323 whole entry, looked up): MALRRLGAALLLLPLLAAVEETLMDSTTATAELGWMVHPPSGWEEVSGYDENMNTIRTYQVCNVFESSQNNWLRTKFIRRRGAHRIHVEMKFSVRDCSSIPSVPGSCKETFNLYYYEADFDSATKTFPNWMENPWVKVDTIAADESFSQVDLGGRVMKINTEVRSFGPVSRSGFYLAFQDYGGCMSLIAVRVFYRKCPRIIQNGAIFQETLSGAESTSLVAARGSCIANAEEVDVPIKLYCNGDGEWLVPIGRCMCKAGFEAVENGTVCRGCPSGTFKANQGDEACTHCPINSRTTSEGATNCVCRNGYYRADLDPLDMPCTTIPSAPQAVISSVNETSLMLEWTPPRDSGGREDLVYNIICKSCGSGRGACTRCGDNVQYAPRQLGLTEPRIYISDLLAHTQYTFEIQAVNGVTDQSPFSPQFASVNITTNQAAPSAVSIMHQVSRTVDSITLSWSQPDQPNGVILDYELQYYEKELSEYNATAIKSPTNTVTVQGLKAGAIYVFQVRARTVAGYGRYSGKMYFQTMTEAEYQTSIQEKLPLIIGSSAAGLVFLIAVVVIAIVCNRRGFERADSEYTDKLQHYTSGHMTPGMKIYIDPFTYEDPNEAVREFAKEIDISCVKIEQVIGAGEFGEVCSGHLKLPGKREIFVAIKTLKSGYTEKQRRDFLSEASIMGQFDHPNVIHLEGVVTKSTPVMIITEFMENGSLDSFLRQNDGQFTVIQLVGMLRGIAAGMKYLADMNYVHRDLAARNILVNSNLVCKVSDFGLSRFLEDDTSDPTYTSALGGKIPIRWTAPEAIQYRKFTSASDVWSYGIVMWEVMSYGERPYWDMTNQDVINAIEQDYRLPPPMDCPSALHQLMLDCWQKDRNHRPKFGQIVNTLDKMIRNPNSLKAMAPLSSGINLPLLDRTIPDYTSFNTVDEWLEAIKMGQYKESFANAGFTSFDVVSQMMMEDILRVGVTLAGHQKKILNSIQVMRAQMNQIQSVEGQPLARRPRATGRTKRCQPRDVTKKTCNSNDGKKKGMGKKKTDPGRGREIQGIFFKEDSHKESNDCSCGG
Sequence of Hck (P08631 whole entry, looked up): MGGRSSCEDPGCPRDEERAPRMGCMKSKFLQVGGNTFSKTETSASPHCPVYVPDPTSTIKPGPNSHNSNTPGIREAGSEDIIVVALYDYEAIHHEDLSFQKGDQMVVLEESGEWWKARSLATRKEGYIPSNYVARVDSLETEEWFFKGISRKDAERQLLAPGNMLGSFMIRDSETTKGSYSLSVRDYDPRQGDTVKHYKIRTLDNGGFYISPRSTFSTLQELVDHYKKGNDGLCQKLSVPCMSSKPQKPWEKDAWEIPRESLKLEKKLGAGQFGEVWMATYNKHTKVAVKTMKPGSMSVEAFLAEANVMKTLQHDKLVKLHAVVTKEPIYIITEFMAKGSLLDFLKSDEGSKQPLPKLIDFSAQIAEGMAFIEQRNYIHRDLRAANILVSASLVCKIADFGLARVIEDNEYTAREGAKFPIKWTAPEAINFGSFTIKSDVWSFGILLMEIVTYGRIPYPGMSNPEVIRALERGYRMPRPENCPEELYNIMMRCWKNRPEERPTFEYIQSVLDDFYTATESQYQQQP
Sequence of FGFR3 (P22607 whole entry, looked up): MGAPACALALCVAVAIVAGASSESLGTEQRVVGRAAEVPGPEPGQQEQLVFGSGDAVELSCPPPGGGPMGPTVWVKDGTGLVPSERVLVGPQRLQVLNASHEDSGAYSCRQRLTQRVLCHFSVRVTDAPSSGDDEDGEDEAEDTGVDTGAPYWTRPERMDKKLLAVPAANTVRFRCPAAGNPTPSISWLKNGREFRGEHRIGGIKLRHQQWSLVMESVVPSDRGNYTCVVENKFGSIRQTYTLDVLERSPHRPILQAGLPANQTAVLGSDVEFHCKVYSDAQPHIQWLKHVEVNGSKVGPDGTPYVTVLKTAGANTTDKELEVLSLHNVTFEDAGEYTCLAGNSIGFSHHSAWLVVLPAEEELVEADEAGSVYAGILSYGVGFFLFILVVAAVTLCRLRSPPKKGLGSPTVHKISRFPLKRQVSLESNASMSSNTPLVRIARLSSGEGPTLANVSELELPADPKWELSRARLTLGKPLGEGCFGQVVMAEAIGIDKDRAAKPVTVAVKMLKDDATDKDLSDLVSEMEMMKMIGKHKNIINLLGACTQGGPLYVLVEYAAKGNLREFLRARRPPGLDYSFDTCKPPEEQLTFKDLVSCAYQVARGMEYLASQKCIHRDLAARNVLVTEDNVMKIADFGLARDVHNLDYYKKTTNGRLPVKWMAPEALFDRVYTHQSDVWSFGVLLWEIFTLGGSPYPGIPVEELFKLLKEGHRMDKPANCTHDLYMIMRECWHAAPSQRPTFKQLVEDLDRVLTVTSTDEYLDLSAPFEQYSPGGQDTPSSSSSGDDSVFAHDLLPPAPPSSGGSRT

Row | SH2 binding enrichment (SHP2-C SH2) | SH2 binding enrichment (Grb2 SH2) | SH2 binding enrichment (c-Src SH2) | Sequence | phosphorylation enrichment (c-Src) | phosphorylation enrichment (AncSZ) | phosphorylation enrichment (MERTK) | phosphorylation enrichment (FGFR3) | phosphorylation enrichment (Fer (mouse)) | phosphorylation enrichment (c-Abl (mouse)) | phosphorylation enrichment (EPHB2) | phosphorylation enrichment (Fes) | phosphorylation enrichment (Hck) | phosphorylation enrichment (Jak2) | phosphorylation enrichment (EPHB1) | phosphorylation enrichment (FGFR1) | phosphorylation enrichment (Fyn)
1 | 0.551 | 0.758 | 0.352 | MKGDFYRSLAE [YWHAG_Y131_Y133S_YF] | 0.441 | 0.697 | 0.37 | 0.52 | 0.467 | 0.585 | 0.437 | 0.73 | 0.49 | 0.811 | 0.334 | 0.422 | 0.404
2 | 0.407 | 0.627 | 0.458 | ARGTRYRFVSQ [UCN3_Y95_YF] | 0.607 | 0.597 | 0.48 | 0.535 | 0.492 | 0.63 | 0.41 | 0.548 | 0.546 | 0.742 | 0.416 | 0.483 | 0.52
3 | 0.608 | 0.792 | 1.23 | NSNAAYEESHF [LRIF1_Y714_Q716E] | 0.475 | 0.849 | 0.385 | 0.614 | 0.504 | 0.659 | 0.499 | 0.919 | 0.496 | 0.87 | 0.483 | 0.443 | 0.434
4 | 1.35 | 1.24 | 1.19 | SVTCTYCPALN [TP53_Y126_S127C] | 0.581 | 0.84 | 0.611 | 0.46 | 0.394 | 0.683 | 0.413 | 0.779 | 0.495 | 0.629 | 0.38 | 0.564 | 0.545
5 | 0.633 | 0.779 | 0.526 | IHADICRWFNI [MARS1_Y344_Y344C] | 0.334 | 0.962 | 0.356 | 0.675 | 0.464 | 0.697 | 0.546 | 1.18 | 0.497 | 0.809 | 0.639 | 0.413 | 0.395
6 | 0.648 | 0.805 | 0.479 | KAESWYQTKYE [KRT75_Y342_E337K] | 0.457 | 0.763 | 0.433 | 0.491 | 0.57 | 0.396 | 0.524 | 0.698 | 0.459 | 0.471 | 0.399 | 0.367 | 0.485
7 | 0.805 | 0.882 | 0.6 | CDYKKYGKGLR [ZNF445_Y433_Y428C] | 0.299 | 0.565 | 0.335 | 0.445 | 0.318 | 0.525 | 0.362 | 0.576 | 0.349 | 0.563 | 0.284 | 0.404 | 0.364

The remaining lines, values behind:

Row | Sequence | SH2 binding enrichment (SHP2-C SH2) | SH2 binding enrichment (Grb2 SH2) | SH2 binding enrichment (c-Src SH2) | phosphorylation enrichment (c-Src) | phosphorylation enrichment (AncSZ) | phosphorylation enrichment (MERTK) | phosphorylation enrichment (FGFR3) | phosphorylation enrichment (Fer (mouse)) | phosphorylation enrichment (c-Abl (mouse)) | phosphorylation enrichment (EPHB2) | phosphorylation enrichment (Fes) | phosphorylation enrichment (Hck) | phosphorylation enrichment (Jak2) | phosphorylation enrichment (EPHB1) | phosphorylation enrichment (FGFR1) | phosphorylation enrichment (Fyn)
8 | TKEPKYEGAGS [KIAA1210_Y1615] | 0.719 | 0.863 | 0.597 | 0.315 | 0.614 | 0.326 | 0.385 | 0.378 | 0.496 | 0.337 | 0.542 | 0.372 | 0.5 | 0.368 | 0.403 | 0.339
9 | GSETPYMDRTP [ESS2_Y335_V336M] | 0.788 | 1.05 | 0.49 | 0.454 | 0.662 | 0.365 | 0.413 | 0.363 | 0.424 | 0.413 | 0.715 | 0.365 | 0.499 | 0.571 | 0.431 | 0.344
10 | SKKSTYRALLD [GANC_Y43_Q44R] | 0.688 | 0.651 | 0.465 | 0.385 | 0.471 | 0.421 | 0.348 | 0.358 | 0.447 | 0.315 | 0.655 | 0.406 | 0.533 | 0.368 | 0.347 | 0.432
11 | INASGYRVGPA [ACSM1_Y477_I479V] | 0.691 | 0.853 | 0.358 | 0.51 | 0.652 | 0.49 | 0.629 | 0.563 | 0.615 | 0.485 | 0.901 | 0.643 | 0.523 | 0.564 | 0.595 | 0.411
12 | EGLKVYVNGTL [ADGRD1_Y183] | 0.757 | 1.68 | 0.502 | 0.418 | 1.22 | 0.469 | 1.05 | 0.491 | 0.848 | 0.68 | 1.33 | 0.457 | 1.24 | 0.633 | 0.527 | 0.497
13 | CFTRQYTLPPG [HSPB1_Y142_K141Q] | 0.794 | 0.773 | 0.523 | 0.361 | 0.976 | 0.399 | 0.656 | 0.496 | 0.722 | 0.57 | 0.943 | 0.497 | 0.901 | 0.577 | 0.553 | 0.388
14 | LGPDGYSTVDR [ARVCF_Y901] | 1.18 | 0.927 | 29.2 | 0.395 | 2.11 | 0.553 | 0.81 | 0.709 | 0.909 | 0.594 | 1.31 | 0.405 | 1.01 | 0.318 | 0.617 | 0.679
15 | PLRADYLIARV [HLCS_Y635] | 0.711 | 0.896 | 0.46 | 0.582 | 0.777 | 0.717 | 0.495 | 0.515 | 0.853 | 0.487 | 1.1 | 0.461 | 0.747 | 0.312 | 0.8 | 0.319
16 | KFACSYTPVKA [FLNB_Y708_T703K_YF] | 1.99 | 0.862 | 0.978 | 0.459 | 0.811 | 0.481 | 0.579 | 0.462 | 0.577 | 0.502 | 0.895 | 0.509 | 0.747 | 0.521 | 0.497 | 0.472

Source: the supplement of paper PMC10065799, “High-throughput profiling of sequence recognition by tyrosine kinases and SH2 domains using bacterial peptide display” (eLife, 2023)
